# T1: seleno-methionine labeled SRP72-PBD (L31M/L65M) (human, UniProt O76094 8-166, L31M | L65M, seleno-methionine labeled)
# T1 sequence (looked up): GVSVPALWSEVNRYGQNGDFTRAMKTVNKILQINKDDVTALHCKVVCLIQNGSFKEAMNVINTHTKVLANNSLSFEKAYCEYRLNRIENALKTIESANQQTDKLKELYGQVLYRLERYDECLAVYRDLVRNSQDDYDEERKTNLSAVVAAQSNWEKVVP
# T2: human SRP72 protein-binding domain (SRP72-PBD, 8-166) (human, UniProt O76094 8-166)
# T2 sequence (looked up): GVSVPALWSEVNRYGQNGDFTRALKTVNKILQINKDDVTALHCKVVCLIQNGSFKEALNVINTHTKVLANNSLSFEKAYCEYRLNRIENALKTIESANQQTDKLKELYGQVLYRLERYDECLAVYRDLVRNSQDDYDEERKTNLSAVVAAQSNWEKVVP
# Key:
# [1] = molecular target: T1, seleno-methionine labeled SRP72-PBD …; test: crystal structure
# [2] = molecular target: T2, human SRP72 protein-binding domain …; test: ITC
binding result [1],Kd [2] [nM],dH [2] [kcal/mol],Binder
binds,,,"untagged human SRP68 protein-binding domain (SRP68-PBD, 546-614) (domain or fragment, UniProt Q9UHB9 546-614, looked up) SQVKDNKPLVERFETFCLDPSLVTKQANLVHFPPGFQPIPCKPLFFDLALNHVAFPPLEDKLEQKTKSG"
,33 ± 11,-15.7 ± 0.5,"His6-SRP68-PBD (human SRP68 546-614 from pETtrx1a) (domain or fragment, UniProt Q9UHB9 546-614, looked up) SQVKDNKPLVERFETFCLDPSLVTKQANLVHFPPGFQPIPCKPLFFDLALNHVAFPPLEDKLEQKTKSG"

# Reference: publication PMC5224484 (Nucleic Acids Research, 2016)
